Measurements from paper PMC5086056.

Target: AcGFP1-JAK3 (pAcGFP1-JAK3) (Bos taurus) (UniProt E1BEL4)
Test: co-IP; Matchmaker Co-IP system; ProLabel enzymatic activity (luminescence, ProLabel detection kit) in protein samples of HEK cells co-transfected with pAcGFP1-JAK3 and a pProLabel prey; read 25 min after addition of the substrate; against the negative control

Sequence of UniProt E1BEL4 (E1BEL4 entry or part of it): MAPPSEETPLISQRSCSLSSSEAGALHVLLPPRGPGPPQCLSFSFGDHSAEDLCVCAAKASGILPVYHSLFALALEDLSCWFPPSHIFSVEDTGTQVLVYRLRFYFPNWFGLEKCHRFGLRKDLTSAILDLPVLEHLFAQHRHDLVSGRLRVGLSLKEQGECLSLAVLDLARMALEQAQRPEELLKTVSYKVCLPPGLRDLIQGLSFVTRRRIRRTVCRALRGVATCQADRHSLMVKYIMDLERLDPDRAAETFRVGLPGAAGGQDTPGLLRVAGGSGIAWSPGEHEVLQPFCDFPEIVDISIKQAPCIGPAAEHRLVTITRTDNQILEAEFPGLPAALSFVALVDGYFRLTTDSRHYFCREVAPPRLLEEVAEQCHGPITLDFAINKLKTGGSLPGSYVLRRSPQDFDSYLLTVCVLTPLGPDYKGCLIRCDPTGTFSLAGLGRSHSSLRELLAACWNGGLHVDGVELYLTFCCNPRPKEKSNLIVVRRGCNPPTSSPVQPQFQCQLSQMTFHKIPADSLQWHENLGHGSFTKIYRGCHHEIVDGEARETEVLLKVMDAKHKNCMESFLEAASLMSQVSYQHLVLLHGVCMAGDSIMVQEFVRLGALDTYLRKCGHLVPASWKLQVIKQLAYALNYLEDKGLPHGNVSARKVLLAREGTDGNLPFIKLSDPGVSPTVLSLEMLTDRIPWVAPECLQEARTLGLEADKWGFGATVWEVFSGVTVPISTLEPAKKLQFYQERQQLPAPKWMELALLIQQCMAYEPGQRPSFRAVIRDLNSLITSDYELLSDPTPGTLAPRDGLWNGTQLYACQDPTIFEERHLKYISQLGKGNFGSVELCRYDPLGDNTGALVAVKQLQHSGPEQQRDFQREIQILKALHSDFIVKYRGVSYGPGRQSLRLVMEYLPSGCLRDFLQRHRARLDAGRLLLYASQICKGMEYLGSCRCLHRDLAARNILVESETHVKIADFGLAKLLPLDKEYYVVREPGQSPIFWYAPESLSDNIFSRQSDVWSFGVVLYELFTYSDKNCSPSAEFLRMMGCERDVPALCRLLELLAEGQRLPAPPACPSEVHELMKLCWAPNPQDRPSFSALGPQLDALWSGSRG

fold induction in ProLabel enzymatic activity as compared to the negative control | Substance
34 fold | ProLabel-INHBA (pProLabel-INHBA) (from UniProt P07995 21-425) (natural protein)
42 fold | ProLabel-LEPROTL1 (pProLabel-LEPROTL1) (from UniProt Q32PD8 1-131) (natural protein)
15 fold | ProLabel-CDKN1B (pProLabel-CDKN1B) (from UniProt A6QLS3 1-198) (natural protein)
